Experimental data: article PMC11464180 (Immunity, 2024)

Assays:
H1 mini-HA (#4900) [1] = molecular target: T1, H1 mini-HA (#4900) (Designed from influenza A virus …, stabilised); test: ELISA
H1 mini-HA (#4900) [2] = molecular target: T1, H1 mini-HA (#4900); test: BLI
[3] = molecular target: H1N1 A/Solomon Island/3/2006 HA (Influenza A virus A/Solomon …, UniProt A7Y8I1, strain); test: BLI

B1: 013–10 3F02 IgG K56N mutant (antibody, V domains shown)
VH: QVQLVESGGGVAQPGRSLRLSCAASGFTFSTYGMHWVRQAPGKGLEWVAVISYDGSNRYYAEILKDRFTISRDNSKNTVYLQMNSLRTEDTAVYFCAKEGRPLIVSGTHFFQFYYGMDVWGQGTTVTVSS
VL: DIQMTQSPSSLSASVGDRVTISCRASQSIGTYLNWYQQKPGKAPNLLIYGTSTLKSGVPSRFSGSGSGTDFTLTIGSLQPEDFATYFCQQSFSPPLTFGRGTRLEIK
Q: How did the “fold weakening of binding affinity against WT” value (H1 mini-HA (#4900) [1]) turn out when B1 was run?
A: The value was 10 fold.

B2: 310–18A5 (antibody, V domains shown)
VH: QVQLMQSGTEVKKPGSSVRVSCKASGSTFNSDAISWVRQAPGQGLEWMGGILGMFRTVNYAQRFQGRVTITADELMSTAYMELSGLRFEDTAVYYCARGDGYKPNFLRYWGQGTLITVSS
VL: TLSLSPGERATLSCRASQSVSSTSLAWYQQKFGQAPRLLIYGASNRATGIPDRFSGSGSGTDFTLTISRLEPEDFAVYYCQQYGNSLTFGGGTKVEIK
Q: With B2 as the binder, how does the Kd (H1 mini-HA (#4900) [2]) read?
A: Its Kd is 1000 pM.

Q: What about the Kd [3] of the same binder?
A: The Kd was 200 pM.
